Molecular target: TACC3 (UniProt Q9Y6A5)
Test: co-IP with anti-FLAG and anti-TACC3
Conditions: reference: wild-type stathmin1-FLAG; sites S16

binding against the reference: lost
Substance: stathmin1 (from UniProt P16949) stathmin1 S16A-FLAG
